Data as given in patent US11814435B2, “Therapeutic antibodies and their uses” (PFIZER INC., priority 2015, dated 2023).

T1: hBCMA (human BCMA) (Homo sapiens, UniProt Q02223)
T1 sequence (Q02223 1-184): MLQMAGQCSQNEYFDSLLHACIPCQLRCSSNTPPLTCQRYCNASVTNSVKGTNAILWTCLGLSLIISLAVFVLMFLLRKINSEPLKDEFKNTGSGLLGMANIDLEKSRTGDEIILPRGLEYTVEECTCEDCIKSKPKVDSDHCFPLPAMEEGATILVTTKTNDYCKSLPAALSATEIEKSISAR


Legend:
hBCMA (human BCMA) = target: T1, hBCMA (human BCMA); test: Kinetics and affinity of hBCMA/human IgG interactions by SPR (Bio-Rad Proteon XPR36); format: binding; settings: huBCMA, 37° C.
Method: All experiments were performed on a Bio-Rad Proteon XPR36 surface Plasmon resonance biosensor (Bio-Rad, Hercules, Calif.). An array of anti-BCMA antibodies was prepared using an amine-coupling method on a Bio-Rad GLC Sensor Chip similar to that described in Abdiche, et al., Anal. Biochem. 411, 139-151 (2011). The analysis temperature for the immobilization was 25° C. and the running buffer was HBS-T+(10 mM HEPES, 150 mM NaCl, 0.05% Tween-20, pH 7.4). Channels were activated in the analyte (horizontal) direction by injecting a mixture of 1 mM ECD and 0.25 mM NHS for 3 minutes at a flow rate of 30 μL/min. IgGs were immobilized on the activated spots by injecting them in the ligand (vertical) direction at 20 μg/mL in 10 mM Acetate pH 4.5 buffer for 1.5 minutes at […]. The activated surfaces were blocked by injecting 1M ethanolamine, pH 8.5 in the analyte direction for 3 minutes at 30 μL/min.
The analysis temperature for the hBCMA binding analysis was 37° C. or 25° C. in a running buffer of HBS-T+, supplemented with 1 mg/mL BSA. A kinetic titration method was employed for the interaction analysis as described in Abdiche, et al. The hBCMA (human BCMA) analyte was injected in the analyte direction using a series of injections from low to high concentration. The concentrations used were 0.08 nM, 0.4 nM, 2 nM, 10 nM and 50 nM (a 5-membered series, with a 5-fold dilution factor and top concentration of 50 nM). The association time for a given analyte dilution was two minutes. Immediately after the 50 nM hBCMA injection, dissociation was monitored for 2 hours. Prior to the hBCMA analyte injections, buffer was injected 5 times using the same association and dissociation times at the hBCMA analyte cycles to prepare a buffer blank sensorgram for double-referencing purposes (double referencing as described in Myszka, J. Mol. Recognit. 12, 279-284 (1999).
The sensorgrams were double-referenced and fit to a 1:1 Langmuir with mass transport kinetic titration model in BIAevaluation Software version 4.1.1 (GE Lifesciences, Piscataway, N.J.). The sensorgrams and fits are shown in FIG. 1, and the kinetics and affinity parameters for various anti-BCMA antibodies of the present invention are shown in Tables 6A-6C.

cyBCMA = test: Kinetics and affinity of cyBCMA/human IgG interactions by SPR (Bio-Rad Proteon XPR36); format: binding, cynomolgus; settings: 37° C.

Molecule	ka (1/Ms) huBCMA @ 37° C. (hBCMA (human BCMA))	kd (1/s) huBCMA @37° C. (hBCMA (human BCMA))	ka (1/Ms) cyBCMA @ 37° C. (cyBCMA)	kd (1/s) cyBCMA @37° C. (cyBCMA)
L3.PY/L1.AH/H2.QR: anti-BCMA antibody (antibody, V domains shown) VH: EVQLLESGGGLVQPGGSLRLSCAASGFTFGSYAMTWVRQAPGKGLEWVSAISGSGGNTFYADQRKGRFTISRDNSKNTLYLQMNSLRAEDTAVYYCARVSPIASGMDYWGQGTLVTVSS VL: EIVLTQSPGTLSLSPGERATLSCRASQSVSAHYLAWYQQKPGQAPRLLIYGASSRATGIPDRFSGSGSGTDFTLTISRLEPEDFAVYYCQHYPYPPSFTFGQGTKVEIK	3.13e+06 M⁻¹ s⁻¹	0.00181 s⁻¹	2.2e+06 M⁻¹ s⁻¹	0.00491 s⁻¹
L3.PY/L1.AH/H2.DY: anti-BCMA antibody (antibody, V domains shown) VH: EVQLLESGGGLVQPGGSLRLSCAASGFTFGSYAMTWVRQAPGKGLEWVSAIDYSGGNTFYADSVKGRFTISRDNSKNTLYLQMNSLRAEDTAVYYCARVSPIASGMDYWGQGTLVTVSS VL: EIVLTQSPGTLSLSPGERATLSCRASQSVSAHYLAWYQQKPGQAPRLLIYGASSRATGIPDRFSGSGSGTDFTLTISRLEPEDFAVYYCQHYPYPPSFTFGQGTKVEIK	3.05e+06 M⁻¹ s⁻¹	0.00152 s⁻¹	2.32e+06 M⁻¹ s⁻¹	0.00451 s⁻¹
L3.PY/L1.AH/H2.YQ: anti-BCMA antibody (antibody, V domains shown) VH: EVQLLESGGGLVQPGGSLRLSCAASGFTFGSYAMTWVRQAPGKGLEWVSAISYQGGNTFYADSVKGRFTISRDNSKNTLYLQMNSLRAEDTAVYYCARVSPIASGMDYWGQGTLVTVSS VL: EIVLTQSPGTLSLSPGERATLSCRASQSVSAHYLAWYQQKPGQAPRLLIYGASSRATGIPDRFSGSGSGTDFTLTISRLEPEDFAVYYCQHYPYPPSFTFGQGTKVEIK	2.42e+06 M⁻¹ s⁻¹	0.00193 s⁻¹	1.58e+06 M⁻¹ s⁻¹	0.00431 s⁻¹
L3.PY/L1.AH/H2.LT: anti-BCMA antibody (antibody, V domains shown) VH: EVQLLESGGGLVQPGGSLRLSCAASGFTFGSYAMTWVRQAPGKGLEWVSAISLTGGNTFYADSVKGRFTISRDNSKNTLYLQMNSLRAEDTAVYYCARVSPIASGMDYWGQGTLVTVSS VL: EIVLTQSPGTLSLSPGERATLSCRASQSVSAHYLAWYQQKPGQAPRLLIYGASSRATGIPDRFSGSGSGTDFTLTISRLEPEDFAVYYCQHYPYPPSFTFGQGTKVEIK	3.16e+06 M⁻¹ s⁻¹	0.00123 s⁻¹	2.19e+06 M⁻¹ s⁻¹	0.00296 s⁻¹
L3.PY/L1.AH/H2.HA: anti-BCMA antibody (antibody, V domains shown) VH: EVQLLESGGGLVQPGGSLRLSCAASGFTFGSYAMTWVRQAPGKGLEWVSAISHAGGNTFYADSVKGRFTISRDNSKNTLYLQMNSLRAEDTAVYYCARVSPIASGMDYWGQGTLVTVSS VL: EIVLTQSPGTLSLSPGERATLSCRASQSVSAHYLAWYQQKPGQAPRLLIYGASSRATGIPDRFSGSGSGTDFTLTISRLEPEDFAVYYCQHYPYPPSFTFGQGTKVEIK	3.33e+06 M⁻¹ s⁻¹	0.00181 s⁻¹	2.58e+06 M⁻¹ s⁻¹	0.00439 s⁻¹
L3.PY/L1.AH/H2.QL: anti-BCMA antibody (antibody, V domains shown) VH: EVQLLESGGGLVQPGGSLRLSCAASGFTFGSYAMTWVRQAPGKGLEWVSAISGSGGNTFYADQLKGRFTISRDNSKNTLYLQMNSLRAEDTAVYYCARVSPIASGMDYWGQGTLVTVSS VL: EIVLTQSPGTLSLSPGERATLSCRASQSVSAHYLAWYQQKPGQAPRLLIYGASSRATGIPDRFSGSGSGTDFTLTISRLEPEDFAVYYCQHYPYPPSFTFGQGTKVEIK	3.04e+06 M⁻¹ s⁻¹	0.0016 s⁻¹	2.62e+06 M⁻¹ s⁻¹	0.00955 s⁻¹
